The values below come from US20230121511A1 (Chugai, published 2023).

Assay [1] has as its target T1, DualAE05-SG1202k/SG1201hV11 (engineered Cys at position 191 (EU) of CH1, unpaired).
T1 construct: Heterodimeric antibody with S191C in only one Fab arm, so it exists only in the “unpaired cysteines” form; not shown: light chain constant region
The experiment in a line: SPR (Biacore T200, 37 C), tool antibody captured on mouse anti-human Fc, anti-CH1 antibody injected. Here is the method: (§1) Biacore binding experiments were performed to characterize binding activities of the anti-CH1 antibodies prepared in Example 3.2 to DualAE05-SG1201, DualAE05-SG1202, DualAE05-SG1202k/SG1201hV11, IgG1_001 and IgG4_001 at 37 degrees C. using Biacore T200 instrument (GE Healthcare). Specifically, mouse anti-human Fc (GE Healthcare) was immobilized onto all flow cells of a CM4 sensor chip using amine coupling kit (GE Healthcare). Tool antibodies DualAE05-SG1201, DualAE05-SG1202, DualAE05-SG1202k/SG1201hV11, IgG1_001 and IgG4_001 were captured onto flow cell, and then anti-CH1 antibodies obtained from Example 3.2 was injected over all the flow cells. All antibodies were prepared in ACES pH 7.4 containing 20 mM ACES, 150 mM NaCl, 0.05% Tween 20, 0.005% NaN₃. Sensor surface was regenerated each cycle with 3M MgCl₂.

The target in assay [2] is T2, IgG1_001.
T2 construct: Tool antibody for screening; captured on mouse anti-human Fc; copies: 2 + 2
T2 sequence (VH, as listed by the source limits assumed, chain 1 of 2): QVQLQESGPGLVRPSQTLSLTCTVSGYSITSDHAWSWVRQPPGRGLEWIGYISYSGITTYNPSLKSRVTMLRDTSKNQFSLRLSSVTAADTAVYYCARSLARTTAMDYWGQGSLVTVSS
T2 sequence (VL, as listed by the source limits assumed, chain 2 of 2): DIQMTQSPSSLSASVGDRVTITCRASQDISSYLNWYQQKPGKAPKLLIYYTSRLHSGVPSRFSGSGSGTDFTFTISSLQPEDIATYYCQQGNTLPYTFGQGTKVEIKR
The description is as above. Here is the method:
as §1

Assay [3] deals with T3, DualAE05-SG1202 (Heavy chain pos 202 is the engineered Cys (S191C, EU). It can form an inter-Fab disulfide between the two heavy chains, so the preparation is a mixture of the paired and unpaired cysteine forms.).
T3 construct: Corresponds to DualAE05-SG1201 with S191C in both Fab arms
The description is as above. Here is the method: as §1

Assay [4] concerns the target T4, DualAE05-SG1201.
T4 construct: Bivalent tool antibody with human IgG1 CH1 without S191C
Described as above. The procedure: as §1

In assay [5] the target is T5, IgG4_001.
T5 construct: Tool antibody for screening; captured on mouse anti-human Fc; copies: 2 + 2
T5 sequence (VH, as listed by the source limits assumed): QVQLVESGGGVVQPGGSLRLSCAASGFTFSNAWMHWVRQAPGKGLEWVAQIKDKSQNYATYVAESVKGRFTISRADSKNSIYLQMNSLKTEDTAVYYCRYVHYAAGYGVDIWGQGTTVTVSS
The description is as above. Here is the method:
as §1

Assay [6] has as its target T6, Human CD3eg linker (human).
T6 construct: Single-chain soluble construct expressed in FreeStyle293F cells; used as the SPR analyte; also called recombinant human CD3
T6 chain: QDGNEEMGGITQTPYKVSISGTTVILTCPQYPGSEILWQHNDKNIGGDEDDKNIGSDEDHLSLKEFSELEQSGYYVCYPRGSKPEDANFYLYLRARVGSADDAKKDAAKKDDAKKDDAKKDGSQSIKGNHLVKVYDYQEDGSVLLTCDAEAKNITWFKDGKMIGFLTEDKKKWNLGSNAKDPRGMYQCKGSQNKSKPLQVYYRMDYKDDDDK
The assay is described as follows: SPR (Biacore 8K), antibody captured on anti-human Fc, recombinant human CD3 as analyte, 25 C, 1:1 model. The procedure:
Binding affinity of Dual-Fab antibodies (Dual-Ig) to human CD3 were assessed at 25 degrees C. using Biacore 8K instrument (GE Healthcare). Anti-human Fc (GE Healthcare) was immobilized onto all flow cells of a CM4 sensor chip using amine coupling kit (GE Healthcare). Antibodies were captured onto the anti-Fc sensor surfaces, then recombinant human CD3 or CD137 was injected over the flow cell. All antibodies and analytes were prepared in ACES pH 7.4 containing 20 mM ACES, 150 mM NaCl, 0.05% Tween 20, 0.005% NaN₃. Sensor surface was regenerated each cycle with 3M MgCl₂. […] CD137 binding affinity assay was conducted in same condition except assay temperature was set at 37 degrees C.

B1: FAB0135hh (antibody, V domains shown)
VH: QSLEESGGRLVTPGTPLTLTCTASGFSLSSYYMSWVRQAPGEGLEYIGWISSDGSTYYASWAKGRFTISRTSTTVDLKITSPTTEDTATYFCARDYAASNIWGPGTLVTVSS
VL: DVVMTQTPASVSEPVGGTVTIKCQASENIGNALAWYQQKPGQRPKLLIYGASNLESGVPSRFKGSRSGTEYTLTISDLECDDAATYYCQSTYYSSSYSNPFGGGTKVEIK
notes: Conformation-specific anti-CH1 antibody from immunised rabbits
With B1, the “Relative binding activity to tool antibody (normalized against RU binding value for IgG1_001)” value in assay [1] stood at 0.96.

B2: FAB0060hh (antibody, V domains shown)
VH: QSLEESGGRLVTPGTPLTLTCTASGFSLSTYWMNWVRQAPGKGLEWIGTINIDGSAAYASWAKGRFTISRTSTTVDLKAASPTTEDTATYFCATYGGDIWGPGTLVTVSS
VL: DVVMTQTPASVSEPVGGTVTIKCQASQSISTALAWYQQKPGQPPKLLIYGASTLESGVPSRFKGSGSGTEFTLTISDLECADAATYYCQCTYYGNNYGNAFGGGTKVEIK
notes: as for B1
As for B2, the “Relative binding activity to tool antibody (normalized against RU binding value for IgG1_001)” value in assay [1] was 0.957.

B3: FAB0059ff (antibody, V domains shown)
VH: QSLEESGGRLVTPGTPLTLTCTASGFSLSSYWMNWVRQAPGKGLEWIGTVNIDGSTDYASWAKGRFTISRTSTTVDLKAASPTTEDTATYFCARYGGDIWGPGTLVIVSL
VL: DVVMTQTPASVSEPVGGTVTIKCQASQSISTALAWYQQKPGQPPKLLIYGASTLESGVPSRFKGSGSGTEFTLTISDLECADAATYYCQCTYYGSSYGNAFGGGTKVEIK
notes: as for B1
Consider B3, for which the “Relative binding activity to tool antibody (normalized against RU binding value for IgG1_001)” value in assay [1] was 0.929.

B4: FAB0133hh (antibody, V domains shown)
VH: QSLEESGGRLVTPGTPLTLTCTASGFSLSTYYMNWVRQAPGKGLEWIGTITIDGTAYYASWAKGRFTISRTSTTVDLKAASPTTEDTATYFCARYDGDIWGPGTLVTVSS
VL: DVVMTQTPASVSEPVGGTVTIKCQASQSISTALAWYQQKPGQPPKLLIHGASILESGVPSRFKGSGSGTEFTLTISDLECADVATYYCQCTYYGISYGNAFGGGTKVEIK
notes: as for B1
Take B4: the “Relative binding activity to tool antibody (normalized against RU binding value for IgG1_001)” value is 1 in assay [2]; 0.922 in assay [1]; 0.206 in assay [3]; 1.02 in assay [4]; -0.017 in assay [5].

B5: H1573L0581 (antibody, V domains shown)
VH: QVQLVESGGGLVQPGRSLRLSCAASGFKFSNVWFHWVRQAPGKGLEWVAQIKDYYNAYAAYYAPSVKGRFTISRDDSKNSIYLQMNSLKTEDTAVYYCHYVHYASASTLLPAFGVDAWGQGTTVTVSS
VL: DIVMTQSPLSLPVTPGEPASISCQPSQEVVHMNRNTYLHWYQQKPGQAPRLLIYKVSNRFPGVPDRFSGSGSGTDFTLKISRVEAEDVGVYYCAQGTSHPFTFGQGTKLEIK
notes: Dual-Fab antibody (Dual-Ig) captured via anti-human Fc; also called DualAE07; dBBDu183H1573/dBBDu072L0581
On to B5, for which the Kd (usually the concentration at which binding is half-saturated) in assay [6] was 156 nM.
